Measured values published in PMC11172124 (Cells, 2024).

T1: Lamin B1 (human (endogenous in MCF10A and MDA-MB-231)), P20700
T1 chain: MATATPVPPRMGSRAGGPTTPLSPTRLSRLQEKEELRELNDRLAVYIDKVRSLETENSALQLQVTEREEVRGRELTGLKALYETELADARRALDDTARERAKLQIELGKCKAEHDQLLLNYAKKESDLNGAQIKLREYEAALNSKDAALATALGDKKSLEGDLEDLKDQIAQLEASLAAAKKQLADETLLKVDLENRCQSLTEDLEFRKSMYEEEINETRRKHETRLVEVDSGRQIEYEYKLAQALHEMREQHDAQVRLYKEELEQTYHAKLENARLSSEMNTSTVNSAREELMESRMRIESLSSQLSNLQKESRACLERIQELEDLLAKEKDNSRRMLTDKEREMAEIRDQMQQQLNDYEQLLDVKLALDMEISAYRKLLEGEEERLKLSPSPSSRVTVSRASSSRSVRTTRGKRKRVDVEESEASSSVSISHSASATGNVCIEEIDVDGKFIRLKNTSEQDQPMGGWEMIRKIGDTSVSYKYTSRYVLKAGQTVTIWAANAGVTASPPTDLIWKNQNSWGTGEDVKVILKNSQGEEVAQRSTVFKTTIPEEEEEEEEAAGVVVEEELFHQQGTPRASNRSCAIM


Key:
[1] = target: T1, Lamin B1 (human (endogenous in MCF10A …)); test: non-reducing SDS-PAGE with Western blot; MCF10A cell lysate with 20 mM N-ethylmaleimide, without β-mercaptoethanol, 4 min at 50 °C, 4–12% gradient gel; shows only disulphide-linked species; details: remark: other sources report otherwise
[2] = target: the molecule itself; test: as above

Binder	stoichiometry N [1]	ratio of the >140 kDa SUN2 signal to the SUN2 monomer signal [2]	stoichiometry N [2]
Lamin B1, P20700 1-586 (natural protein) MATATPVPPRMGSRAGGPTTPLSPTRLSRLQEKEELRELNDRLAVYIDKVRSLETENSALQLQVTEREEVRGRELTGLKALYETELADARRALDDTARERAKLQIELGKCKAEHDQLLLNYAKKESDLNGAQIKLREYEAALNSKDAALATALGDKKSLEGDLEDLKDQIAQLEASLAAAKKQLADETLLKVDLENRCQSLTEDLEFRKSMYEEEINETRRKHETRLVEVDSGRQIEYEYKLAQALHEMREQHDAQVRLYKEELEQTYHAKLENARLSSEMNTSTVNSAREELMESRMRIESLSSQLSNLQKESRACLERIQELEDLLAKEKDNSRRMLTDKEREMAEIRDQMQQQLNDYEQLLDVKLALDMEISAYRKLLEGEEERLKLSPSPSSRVTVSRASSSRSVRTTRGKRKRVDVEESEASSSVSISHSASATGNVCIEEIDVDGKFIRLKNTSEQDQPMGGWEMIRKIGDTSVSYKYTSRYVLKAGQTVTIWAANAGVTASPPTDLIWKNQNSWGTGEDVKVILKNSQGEEVAQRSTVFKTTIPEEEEEEEEAAGVVVEEELFHQQGTPRASNRSCAIM	2		
SUN2 (natural protein, UniProt Q9UH99-2 1-738, looked up, SUN2, human, endogenous in MCF10A and MDA-MB-231 cells; detected as a ~80 kDa monomer; Free cysteines were alkylated with 20 mM N-ethylmaleimide when the lysate was made; Which isoform the cells express was not determined; also called SUN-domain protein SUN2) MSRRSQRLTRYSQGDDDGSSSSGGSSVAGSQSTLFKDSPLRTLKRKSSNMKRLSPAPQLGPSSDAHTSYYSESLVHESWFPPRSSLEELHGDANWGEDLRVRRRRGTGGSESSRASGLVGRKATEDFLGSSSGYSSEDDYVEDSEGRGSKVTETEPVSSFPAGYSDVDQQSSSSRLRSAVSRAGSLLWMVATSPGRLFRLLYWWAGTTWYRLTTAASLLDVFVLTRRFSSLKTFLWFLLPLLLLTCLTYGAWYFYPYGLQTFHPALVSWWAAKDSRRPDEGWEARDSSPHFQAEQRVMSRVHSLERRLEALAAEFSSNWQKEAMRLERLELRQGAPGQGGGGGLSHEDTLALLEGLVSRREAALKEDFRRETAARIQEELSALRAEHQQDSEDLFKKIVRASQESEARIQQLKSEWQSMTQESFQESSVKELRRLEDQLAGLQQELAALALKQSSVAEEVGLLPQQIQAVRDDVESQFPAWISQFLARGGGGRVGLLQREEMQAQLRELESKILTHVAEMQGKSAREAAASLSLTLQKEGVIGVTEEQVHHIVKQALQRYSEDRIGLADYALESGGASVISTRCSETYETKTALLSLFGIPLWYHSQSPRVILQPDVHPGNCWAFQGPQGFAVVRLSARIRPTAVTLEHVPKALSPNSTISSAPKDFAIFGFDEDLQQEGTLLGKFTYDQDGEPIQTFHFQAPTMATYQVVELRILTNWGHPEYTCIYRFRVHGEPAH		~1	2
